One may read the stoichiometry N as the number of molecules, sites or subunits per partner or assembly.

The assay has as its target recombinant SSA (streptococcal superantigen SSA of S. pyogenes HKU16, without the predicted signal peptide) (S. pyogenes HKU16).

Take “recombinant SSA (streptococcal superantigen SSA of S. pyogenes HKU16, without the predicted signal peptide) (natural protein)”: the stoichiometry N is 2.

(Values after paper PMC7538557.)
